Source: publication PMC2504300

B1: 18-bp grp promoter fragment (dsDNA)
DNA 1: ATATTTTTGTTTATAATA
DNA 2: TATTATAAACAAAAATAT
B2: 111-bp grp promoter (dsDNA)
DNA 1: CGTATCTTCCAAAGATTATAAGCGATTTTTTGTAAGTCTTTTTTTATTATAAGTGTTGATTAGATATAATTCAAAGTAAAGGCTTATATTTTTGTTTATAATATACAGTCT
DNA 2: AGACTGTATATTATAAACAAAAATATAAGCCTTTACTTTGAATTATATCTAATCAACACTTATAATAAAAAAAGACTTACAAAAAATCGCTTATAATCTTTGGAAGATACG

Columns and labels:
Experiment in all cases: filter binding
Grp Y77A = target: T1, Grp Y77A (Sulfolobus tokodaii strain 7, UniProt F9VNT4 1-150, Y77A)
T1 sequence: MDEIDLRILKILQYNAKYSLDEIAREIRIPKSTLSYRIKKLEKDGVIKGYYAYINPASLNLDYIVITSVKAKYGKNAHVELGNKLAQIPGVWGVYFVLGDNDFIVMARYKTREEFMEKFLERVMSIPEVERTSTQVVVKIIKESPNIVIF

[1] = target: T2, Grp (glutamine receptor protein) (Sulfolobus tokodaii strain 7, UniProt F9VNT4 1-150)
T2 sequence: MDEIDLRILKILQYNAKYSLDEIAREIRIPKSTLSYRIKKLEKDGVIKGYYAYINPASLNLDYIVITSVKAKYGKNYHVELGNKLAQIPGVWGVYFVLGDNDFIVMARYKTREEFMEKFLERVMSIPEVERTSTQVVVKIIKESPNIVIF

Grp S32A = target: T3, Grp S32A (Sulfolobus tokodaii strain 7, UniProt F9VNT4 1-150, S32A)
T3 sequence: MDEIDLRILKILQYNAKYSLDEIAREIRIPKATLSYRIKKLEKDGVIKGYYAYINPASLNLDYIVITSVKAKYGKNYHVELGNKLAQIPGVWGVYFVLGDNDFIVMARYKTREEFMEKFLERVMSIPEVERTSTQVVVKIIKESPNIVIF

[2] = target: T2, Grp (glutamine receptor protein); remark: listed apart in the source

Binder	binding result (Grp Y77A)	Kd [1] [nM]	binding signal (Grp S32A)	binding result [2]
B1	no binding	188 ± 1	~5 fold lower binding than wild type	
B2				binds
